Measured values: the supplement of paper PMC9732359
± gives the uncertainty stated by the source.

Test: protein stability index of a GFP-peptide fusion (yeast GPS) (PSI 1-4); higher = more stable; sorted into four equal gates, so the index is relative within each strain
Method in brief: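 Sequencing reads from sorted gates were used to score each peptide. The library consisted of tiled 17-residue yeast protein peptides fused downstream of GFP on a Cherry-expressing plasmid, pooled and carried in yeast. Mid-log cultures in leucine-free medium were split into four equal gates by GFP/Cherry ratio, and each gate's plasmids were PCR-amplified and Illumina-sequenced. The protein stability index adds up, over all gates, the read frequency multiplied by the gate number.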

| Sequence | protein stability index (doa10∆) | protein stability index (pdr5∆) | protein stability index (san1∆) | protein stability index (ubr1∆) |
| --- | --- | --- | --- | --- |
| HLGLDDPQDVFNYNIFM [SIR2] | 2.99 ± 0.087 | 3.2 ± 0.14 | 3.24 ± 0.13 | 3.26 ± 0.078 |
| HLHDAVFVNTGLQNVRK [SWP82] | 2.99 ± 0.14 | 2.84 ± 0.076 | 2.77 ± 0.1 | 2.73 ± 0.088 |
| HLIPNEIKGASETPLQK [RPN4] | – | 1.57 ± 0.12 | 1.55 ± 0.13 | 1.91 ± 0.11 |
| HLRYQPDGVVVHRDDPA [SNF6] | 2.91 ± 0.12 | 3.29 ± 0.1 | 2.94 ± 0.082 | 3.28 ± 0.08 |
| HLSSKTGLHFGRLSLRS [QCR10] | 3.24 ± 0.2 | 3.06 ± 0.11 | 3.06 ± 0.11 | 3.14 ± 0.12 |
| HMADAKIMPKDILQITK [SIR4] | 2.99 ± 0.072 | 3.29 ± 0.068 | 2.87 ± 0.071 | 2.95 ± 0.063 |
| HMAKGLYYGSYRSPRVL [COB] | 1.6 ± 0.15 | 1.1 ± 0.12 | 1.3 ± 0.13 | – |
| HMATALQIAQLTLKHRQ [RPN10] | 1.58 ± 0.13 | 1.8 ± 0.084 | 1.59 ± 0.11 | 1.62 ± 0.068 |
| HMDYDGNIVKEFENKFQ [YMR129W/POM152] | 3.28 ± 0.069 | 3.33 ± 0.082 | 3.36 ± 0.049 | 3.22 ± 0.055 |
| HNGAPHHAIEEAESLLQ [RPO21] | 3.07 ± 0.12 | 3.39 ± 0.18 | 2.66 ± 0.29 | 3 ± 0.088 |
| HPAYLFKGLETPLKARQ [YLR018C/POM34] | 2.16 ± 0.073 | 2.26 ± 0.057 | 1.36 ± 0.077 | 2.08 ± 0.043 |
| HPPDFKRMLLSLSEFAR [SNF2] | 1.32 ± 0.038 | 1.33 ± 0.036 | 1.26 ± 0.064 | 1.27 ± 0.023 |
| HPTVVDAIDNSDEITQD [IRR1] | 3.22 ± 0.093 | 3.17 ± 0.071 | 3.23 ± 0.068 | 3.15 ± 0.052 |
| HQSELIIKQTVHPIPDV [YMR129W/POM152] | 2.74 ± 0.066 | 2.86 ± 0.055 | 2.55 ± 0.071 | 2.27 ± 0.061 |
| HRDAYSGGSVNLYHVTE [PRE2] | 2.81 ± 0.11 | 3.32 ± 0.086 | 3 ± 0.07 | 3.03 ± 0.073 |
| HRVAENWRKQKGIDSVV [RPL32] | 2.55 ± 0.099 | 2.61 ± 0.17 | – | 2.25 ± 0.18 |
| HRWGTKKLPRKTHRGLR [RPL3] | 3.32 ± 0.11 | 3.04 ± 0.13 | 3.12 ± 0.084 | 3.34 ± 0.061 |
| HSKRELDSGDDQPQSSE [BRR2] | 3.33 ± 0.073 | 3.38 ± 0.069 | 3.18 ± 0.057 | 3.19 ± 0.051 |
| HSNESSNETIGEIQLLF [IRR1] | 2.68 ± 0.11 | 2.83 ± 0.14 | 3.27 ± 0.082 | 2.92 ± 0.084 |

| Sequence | protein stability index (doa10∆) | protein stability index (pdr5∆) | protein stability index (san1∆) | protein stability index (ubr1∆) |
| --- | --- | --- | --- | --- |
| HSSSVFKGTDFVHSVKK [SRB4] | 2.75 ± 0.073 | 2.93 ± 0.074 | 3.15 ± 0.048 | 2.99 ± 0.056 |
| HTATDIYQTLIALNLDT [SNF2] | 2.11 ± 0.032 | 2.36 ± 0.034 | 1.88 ± 0.046 | 1.93 ± 0.024 |
| HTDVSSSLEARYFFYLS [RPN3] | 2.68 ± 0.083 | 3.23 ± 0.1 | 2.72 ± 0.11 | 2.85 ± 0.076 |
| HTLDIINVLTDQNPIQV [RPS5] | 1.88 ± 0.066 | 2.33 ± 0.077 | 2.12 ± 0.096 | 1.86 ± 0.055 |
| HTSSSDGNNEIFTCQIM [RPN4] | 2.57 ± 0.094 | 2.89 ± 0.082 | 3.08 ± 0.064 | 2.86 ± 0.086 |
| HVIQIPLNKPLLTEELA [TAF14] | 2.2 ± 0.053 | 2.39 ± 0.037 | 2.49 ± 0.053 | 2.32 ± 0.039 |
| HWPLNWYLILSIISSKT [RGR1] | 1.57 ± 0.1 | 1.5 ± 0.08 | 1.4 ± 0.21 | 1.18 ± 0.067 |
| HYLFNTFTFTAHMGVLL [SWP82] | 1.69 ± 0.039 | 1.68 ± 0.036 | 1.39 ± 0.072 | 1.51 ± 0.024 |
| IAAERAARKAANKEKRA [RPL7B] | 3.27 ± 0.16 | 3.59 ± 0.21 | 3.28 ± 0.22 | 3.3 ± 0.17 |
| IAAMVAQKCGWTIPHKK [SIR2] | 2.33 ± 0.096 | 2.41 ± 0.2 | 2.06 ± 0.15 | 2.35 ± 0.051 |
| IAARRTGLLRGSQKTQD [RPL2A] | 2.83 ± 0.095 | 2.73 ± 0.064 | 2.66 ± 0.075 | 2.68 ± 0.079 |
| IADSTHVKRITKIAQSQ [ECM29] | 1.86 ± 0.097 | 1.71 ± 0.059 | 1.3 ± 0.12 | 1.38 ± 0.044 |
| IAEGQKKFATVPTGGAS [RPP2B] | 2.81 ± 0.057 | 2.89 ± 0.056 | 2.69 ± 0.06 | 2.53 ± 0.04 |
| IAFASNYGIVELDPECQ [RRP43] | 2.34 ± 0.083 | 2.68 ± 0.055 | 2.54 ± 0.059 | 2.53 ± 0.08 |
| IAIIKDTSDIIVDPTAE [RRP46] | 1.86 ± 0.044 | 1.92 ± 0.047 | 1.71 ± 0.078 | 1.61 ± 0.046 |
| IAKATKEFKGIKVTVQL [RPL12A] | – | – | – | 3.35 ± 0.18 |
| IAKFERSEEEVTKLNVL [YIL149C/MLP2] | 3.4 ± 0.13 | 3.46 ± 0.093 | 3.31 ± 0.051 | 3.4 ± 0.069 |
| IAKTFTVDVSSPTENGV [RPL22A] | 3.04 ± 0.11 | 3 ± 0.1 | 2.9 ± 0.094 | 2.99 ± 0.077 |
| IALNLASKKFGKICLIL [SSN2] | 2.41 ± 0.11 | 2.83 ± 0.062 | 2.9 ± 0.071 | 3.12 ± 0.061 |
